Assay results from the supplement of paper PMC6755084.

B1: F1*; the commonest letter at each place (parent)
chain: GAGACCGCAACTGAAAAGTTGTTATCACTTGTCGTAAGACACTTTGGATGGGTTGAAGTTCTGCACGTAGAAGCAAAAGGC

Variants of: B1
Assay: fraction ligated after 30 min (ligated reads / total reads); higher = more ligase activity
Details: with F1*sub RNA substrate (template-directed ligation), 42 °C
Procedure, shortened: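 The ligase ribozyme variants were produced by PCR amplification of oligo-pool templates, T7 transcription and purification on gel. Their ligated and unligated forms were gel-separated, then reverse transcribed with barcoded primers before MiSeq sequencing. Core bases were filtered at a quality of ≥20, and fraction ligated per variant was ligated reads over total reads.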

Variant | fraction ligated
T45A T49C | 0.0557
G47C | 0.236
G47A | 0.788
T45A G50A | 0.0303
T45A G50T | 0.0542
T45A G50C | 0.0158
G47A G55T | 0.221
G47A G55A | 0.775
G47A G55C | 0.422
T44G G46A | 0.818
T44G G46T | 0.805
T44G G46C | 0.806
T45C G50A | 0.0234
T45C G50C | 0.0165
T45C G50T | 0.0706
T44A T49G | 0.785
T44A T49A | 0.779
T44A T49C | 0.737
G46C A57G | 0.712
G46C A57C | 0.778
G46C A57T | 0.76
G46A G50C | 0.0754
G46A G50A | 0.0565
G46A G50T | 0.232

Variant | fraction ligated
G46C A48G | 0.191
G46C A48C | 0.621
G46C A48T | 0.0498
T43C A57C | 0.733
T43C A57T | 0.79
T43C A57G | 0.785
T44C T45A | 0.768
T44C T45C | 0.747
T44C T45G | 0.191
T45G T49G | 0.0893
T45G T49A | 0.0341
T45G T49C | 0.0508
T44A A56T | 0.801
T44A A56C | 0.797
T44A A56G | 0.777
T45G G50C | 0.0186
T45G G50T | 0.0316
T45G G50A | 0.0135
T44C A57G | 0.802
T44C A57C | 0.744
T44C A57T | 0.806
G46T T49A | 0.192
G46T T49C | 0.148
G46T T49G | 0.277

Variant | fraction ligated
G47C G50C | 0.0335
G47C G50A | 0.059
G47C G50T | 0.202
T45G A48T | 0.187
T45G A48C | 0.122
T45G A48G | 0.0747
T43C A56C | 0.731
T43C A56T | 0.755
T43C A56G | 0.757
T43G A48T | 0.668
T43G A48C | 0.625
T43G A48G | 0.78
G46A G47A | 0.804
G46A G47T | 0.115
G46A G47C | 0.146
T45C | 0.74
T45G | 0.385
T45A | 0.787
T44A G46C | 0.793
T44A G46T | 0.81
T44A G46A | 0.816
T44G G47A | 0.305
T44G G47T | 0.0521
T44G G47C | 0.0306

Variant | fraction ligated
G47C A48T | 0.257
G47C A48G | 0.122
G47C A48C | 0.168
G47A A57T | 0.77
G47A A57G | 0.774
G47A A57C | 0.703
T43G G55T | 0.765
T43G G55A | 0.801
T43G G55C | 0.247
T43G | 0.822
T43C | 0.81
G46T G55T | 0.482
G46T G55A | 0.726
G46T G55C | 0.111
G47C G55C | 0.0788
G47C G55T | 0.0996
G47C G55A | 0.11
T44G G55T | 0.795
T44G G55C | 0.729
T44G G55A | 0.842
T44C A48C | 0.783
T44C A48G | 0.821
T44C A48T | 0.781
T45C A56C | 0.747

Variant | fraction ligated
T45C A56G | 0.569
T45C A56T | 0.473
T45G G55C | 0.0194
T45G G55T | 0.0383
T45G G55A | 0.045
T45G G47C | 0.194
T45G G47T | 0.0452
T45G G47A | 0.781
T44A A57C | 0.796
T44A A57T | 0.815
T44A A57G | 0.812
T44A A48T | 0.82
T44A A48G | 0.808
T44A A48C | 0.758
T44G A48G | 0.787
T44G A48T | 0.782
T44G A48C | 0.757
T43C G46A | 0.789
T43C G46C | 0.791
T43C G46T | 0.776
T43G T49G | 0.743
T43G T49C | 0.726
T43G T49A | 0.76
T43G G50A | 0.311

Variant | fraction ligated
T43G G50C | 0.273
T43G G50T | 0.561
T45C A57C | 0.785
T45C A57T | 0.777
T45C A57G | 0.812
T45A A57C | 0.773
T45A A57T | 0.794
T45A A57G | 0.752
G47A T49G | 0.798
G47A T49A | 0.806
G47A T49C | 0.773
T43C G50A | 0.187
T43C G50C | 0.111
T43C G50T | 0.441
T44A G55T | 0.829
T44A G55A | 0.827
T44A G55C | 0.795
T43A T44C | 0.836
T43A T44G | 0.804
T43A T44A | 0.848
T45A A56C | 0.782
T45A A56T | 0.793
T45A A56G | 0.768
T45A G46T | 0.403

Variant | fraction ligated
T45A G46A | 0.178
T45A G46C | 0.0374
G46C T49C | 0.0853
G46C T49A | 0.344
G46C T49G | 0.407
T44G G50T | 0.344
T44G G50A | 0.132
T44G G50C | 0.0717
G47A A56C | 0.125
G47A A56G | 0.098
G47A A56T | 0.181
T44C G46A | 0.778
T44C G46C | 0.8
T44C G46T | 0.787
T44C A56C | 0.791
T44C A56T | 0.78
T44C A56G | 0.793
T45A G55A | 0.274
T45A G55T | 0.144
T45A G55C | 0.067
T43C G55A | 0.803
T43C G55T | 0.817
T43C G55C | 0.571
